# Measurements reported in patent US20220177886, “[…] AGAINST CLOSTRIDIUM […], COMPOSITIONS COMPRISING […] AGAINST CLOSTRIDIUM […] AND METHODS OF USING THE SAME” (Biovector, Inc., published 2022).
# T1: CotA-His6 (Clostridium difficile, UniProt Q186G8 SEQ:1-305)
# T1 sequence: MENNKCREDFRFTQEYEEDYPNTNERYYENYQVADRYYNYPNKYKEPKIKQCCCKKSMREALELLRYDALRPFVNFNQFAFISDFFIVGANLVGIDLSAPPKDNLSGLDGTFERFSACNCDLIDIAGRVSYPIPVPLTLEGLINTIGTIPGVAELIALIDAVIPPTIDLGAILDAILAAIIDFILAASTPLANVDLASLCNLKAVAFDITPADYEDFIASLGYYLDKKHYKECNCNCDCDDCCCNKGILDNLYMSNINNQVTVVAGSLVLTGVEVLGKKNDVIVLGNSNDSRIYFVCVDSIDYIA
# B1: CotEC Chitinase D11.1 (ssDNA)
# DNA: AACTGCCTGGTAAATCGATGACCGCTGCCTCGCCTGAGTAATCATCGTACTATCCACAGGTC
# B2: CdeC D1 (ssDNA)
# DNA: CCAGTGTAGACTACTCAATGCCGTGGACTGGTCGGGTTTGGATTCGGCAGATGAATCAGTAGTACTATCCACAGGTCAACC
# B3: CdeC D1.2 (ssDNA)
# DNA: ACTACTCAATGCCGTGGACTGGTCGGGTTTGGAATCGGCAGATGAATCAGTAGTAAA
# B4: CdeM E2/Em2 (ssDNA)
# DNA: CCAGTGTAGACTACTCAATGCCTTCCATTCACCTACCGAGCTAAGCGTTCGACTTAGGTCTGTACTATCCACAGGTCAACC
# B5: CdeM Em2.1 (ssDNA)
# DNA: CTCAATGCCTTCCATTCACCTACCGAGCTAAGCGTTCGACTTAGGTCTGTACT
# B6: CotE H2.1.1 (ssDNA)
# DNA: CTTGACCTTTGGAATGGGTAGGGAGGGAGGGATACTATCCACAGGTCAACC
# B7: CotE D2.1 (ssDNA)
# DNA: ACTACTCAATGCTCGACATTTCCGCCCCGACGGCCCTCCTAGTGAGGGGAGAGTAGA
# B8: CotE D2.2 (ssDNA)
# DNA: ACTACTCAATGCTCGACATTTCCGCCCCGACGGCCCTCCTAGTGATGGGGAGAGTAGA
# Legend:
# [1] = molecular target: CotE (rCotE LS25, N281-F712) (Clostridium difficile); assay: SPR; conditions: tags: His-tagged (Ni-NTA)
# Method: (§1) For CotE D2, CotE H2 and CotEC chitinase, aptamers were spotted on a gold surface at a concentration of 5 μM in PBS at a volume of approximately 10 nL in triplicate. Negative aptamers of the same length as the positive aptamers were spotted in the same manner, also in triplicate. Protein was then injected over the chip at a volume of 200 μL, with a flow rate of 50 μL/min in a Horiba (OpenPlex) surface plasmon resonance imaging (SPRi) instrument. Resonance due to binding was obtained by subtracting total resonance on the negative sequences from total resonance on the positive sequences. Disassociation values were computed with the following equation: dx/dt˜−kd*x, wherein dx/dt is the derivative of resonance values as a function of time and x is the resonance value for any given time point. Association values were computed with the following equation: dx/dt˜ka*c*Rmax−(ka*c+kd)*x, where x is the resonance due to binding at specific time points, c is the concentration of injectant, and Rmax is the maximum resonance observed.
# (§2) Surface plasmon resonance imaging (SPRi) analysis of binding was performed with the various aptamers immobilized on a surface while the protein was flowed over at various concentrations.
# CotA-His6 [2] = molecular target: T1, CotA-His6; assay: SPR; 5.21E-08; protein immobilized; conditions: tags: His6
# Method: (§3) For CotA C1, the protein was immobilized on a hydrogel chip with EDC-mediated conjugation between primary amines on the protein (side chains on residues) and carboxylic acid groups on the surface of the chip. A protein of similar size was immobilized in the same manner as a negative control. […] For CdeC D1, the protein was received as aggregated, insoluble balls of protein. The binding assay was performed by incubating fluorescently labeled aptamers (FAM) with the protein, and then spinning the tubes down in a microcentrifuge to remove unbound. The pellet was resuspended in selection buffer and spun down again. Bound aptamers were eluted by adding 6 M urea, and spinning again, retaining the supernatant. The aptamers were cleaned up with PCR cleanup columns and the fluorescence was read on a Tecan Sapphire II fluorometer. Excitation was at 497 nm, and emission was at 515 nm. The amount of fluorescence measured in the eluant was divided by the total amount of fluorescence of all fractions.
# CotA-His6 [3] = molecular target: T1, CotA-His6; assay: SPR; 7.82E-08; protein immobilized; conditions: tags: His6; optimized potential G-quartet
# Method: as §3
# [4] = molecular target: CotEC chitinase (rCotEC, AB45, aa381-712 of CotE) (Clostridium difficile); assay: SPR; conditions: tags: His-tagged (Ni-NTA)
# Method: as §1, §2
# CdeC = CdeC (Clostridium difficile); assay: pulldown; conditions: tags: His-tagged (Ni-NTA)
# Method: (§4) The binding assay was performed by incubating fluorescently labeled aptamers (FAM) with the protein, and then spinning the tubes down in a microcentrifuge to remove unbound. The pellet was resuspended in selection buffer and spun down again. Bound aptamers were eluted by adding 6 M urea, and spinning again, retaining the supernatant. The aptamers were cleaned up with PCR cleanup columns and the fluorescence was read on a Tecan Sapphire II fluorometer. Excitation was at 497 nm, and emission was at 515 nm. The amount of fluorescence measured in the eluant was divided by the total amount of fluorescence of all fractions.
# (§5) D1 CdeC: The original aptamer sequence was SEQ ID NO: 6, which binds to the CdeC protein from C. difficile. […] Two aptamers, D1.1 (SEQ ID NO: 38) and D1.2 (SEQ ID NO: 39), were designed to stabilize the structure observed in the analysis of the original sequence (FIG. 11). The CdeC protein self-aggregates in aqueous solutions making surface plasmon resonance analysis difficult. The protein forms large aggregates that are insoluble. The protein aggregates were combined as suspensions with the aptamers in solutions, allowed to incubate at room temperature for 15 min, and then spun down in a microcentrifuge to remove unbound aptamer. The complexes were washed with the appropriate selection buffer (50 mM Tris pH 7.6, 2.5 mM MgCl₂, 2.5 mM CaCl₂, 85 mM KOAc, 0.01% Tween 20, 0.01% BSA) once and the spin process was repeated. Finally, the bound aptamer was eluted from the protein structures with the addition of 6M urea. The protein aggregates were spun again, and this time the supernatant containing the eluted aptamers was retained. The aptamers were synthesized with a FAM label on the 5′ end for this analysis.
# (§6) The CdeM protein is similar to the CdeC protein in that it forms aggregated balls when purified. An amount of protein equivalent to 1 E8 particles with 1 μM of each of the Em2, Em2.1 and Em2.2 aptamers in a total volume of 50 μL in the CdeM buffer was used. The mixture was allowed to incubate for 15 min at room temperature, then centrifuged. The supernatant was removed, and the pellet resuspended in CdeM buffer. This was centrifuged again and the wash process repeated once more.
# CdeM = CdeM (Clostridium difficile); assay: pulldown; conditions: tags: His-tagged (Ni-NTA)
# Method: as §4, §5, §6
# HIV-1 p24 capsid protein = HIV-1 p24 capsid protein (Human immunodeficiency virus 1, UniProt P04591 P04591:133-363); assay: negative control protein; only aspecific fluorescence recovery, graphene oxide assay; conditions: tags: E. coli derived; RayBiotech 212-10004; label: 5'-FAM
# Method: Once the quenched signal was stabilized, a fixed concentration of the target protein was added to the aptamer-GO mix (5 nM aptamer+0.5 ng/μL GO), and the recovery in quenched signal was recorded over time.
# As negative control, a non-target protein at the same concentration (HIV cap protein P24) was added to the aptamer-GO mix.
# Using 0.005% PEG in the buffer system, and 5 nM Fam-H2.1.2 with 0.5 ng/μL GO, the recovery of quenched signal was recorded after adding 50 nM of target protein (CotE) and 50 nM negative control protein (P24).
# CotA-His6 [5] = molecular target: T1, CotA-His6; assay: SPR; 1.84E-08; protein immobilized; conditions: tags: His6
# Method: as §3
binder,measurement,setting,value
CTTGACCTTTGGAATGGGTGGGAGGGATGGGTACTATCCACAGGTCAACC (ssDNA) [CotE H2.1],Kd,[1],17.5 nM
ACTCAAGGCCGTGGACTGGTCGGGTTTGGAT (ssDNA) [CotA C1.2],Kd,CotA-His6 [2],52.1 nM
ACCCGTGGGACTGGGTCGGGTCGGG (ssDNA) [CotA C1.3],Kd,CotA-His6 [3],78.2 nM
B1,Kd,[4],295 nM
B2,binding result,CdeC,binds
B3,binding result,CdeC,binds
B4,binding result,CdeM,binds
B5,binding result,CdeM,binds
AATGGGTGGGAGGGATGGGTACTA (ssDNA) [CotE H2.2],Kd,[1],> 250 nM
CTTGACCTTTGGAATGGGTGGGAGGGAGGGTATCCACAGGTCAACC (ssDNA) [FAM-CotE H2.1.2],binding result,HIV-1 p24 capsid protein,no binding
B6,Kd,[1],> 250 nM
CTTGACCTTTGGAATGGGTGGGAGGGAGGGTATCCACAGGTCAACC (ssDNA) [CotE H2.1.2],Kd,[1],7.52 nM
B7,Kd,[1],34.1 nM
B8,Kd,[1],207 nM
ACTCAAGGCCGTGGACTGGTCGGGTTTGGATTCGGCAGATGAATCACT (ssDNA) [CotA C1.1],Kd,CotA-His6 [5],18.4 nM
